What was measured:
[1] = molecular target: T1, substrate peptide 1: 2Abz-GLQRALEI-Lys(Dnp)-NH2
T1 chain: GLQRALEI

[2] = molecular target: T2, substrate peptide 2: 2Abz-SLGRKIQ-Lys(Dnp)-NH2
T2 chain: SLGRKIQ

[3] = molecular target: T3, substrate peptide 3: 2Abz-GYLGRSYKVG-Lys(Dnp)D-OH (not fully specified)
T3 chain: GYLGRSYKVG

B1: double-stranded activated C1s protein (protein)
chain 1: EPTMYGEILSPNYPQAYPSEVEKSWDIEVPEGYGIHLYFTHLDIELSENCAYDSVQIISGDTEEGRLCGQRSSNNPHSPIVEEFQVPYNKLQVIFKSDFSNEERFTGFAAYYVATDINECTDFVDVPCSHFCNNFIGGYFCSCPPEYFLHDDMKNCGVNCSGDVFTALIGEIASPNYPKPYPENSRCEYQIRLEKGFQVVVTLRREDFDVEAADSAGNCLDSLVFVAGDRQFGPYCGHGFPGPLNIETKSNALDIIFQTDLTGQKKGWKLRYHGDPMPCPKEDTPNSVWEPAKAKYVFRDVVQITCLDGFEVVEGRVGATSFYSTCQSNGKWSNSKLKCQPVDCGIPESIENGKVEDPESTLFGSVIRYTCEEPYYYMENGGGGEYHCAGNGSWVNEVLGPELPKCVPVCGVPREPFEEKQR
chain 2: IIGGSDADIKNFPWQVFFDNPWAGGALINEYWVLTAAHVVEGNREPTMYVGSTSVQTSRLAKSKMLTPEHVFIHPGWKLLEVPEGRTNFDNDIALVRLKDPVKMGPTVSPICLPGTSSDYNLMDGDLGLISGWGRTEKRDRAVRLKAARLPVAPLRKCKEVKVEKPTADAEAYVFTPNMICAGGEKGMDSCKGDSGGAFAVQDPNDKTKFYAAGLVSWGPQCGTYGLYTRVKNYVDWIMKTMQENSTPRED
Kcat/Km [1]: 1.67 | Kcat/Km [2]: 1.45 | Kcat/Km [3]: 15.4
